Source: patent US20060150268A1, “Plant-derived transferase genes” (priority 2002, published 2006)

How the values were obtained:
[1] = system: leaves of Nicotiana benthamiana; assay: Transient expression of HQT in leaves of Nicotiana benthamiana; format: in vivo; settings: for HQT enzyme activity in leaves: plants expressing HQT under the control of the 35S promoter (FIG. 6); for amount of chlorogenic acid in vivo in plants: plants expressing HQT under the control of the 35S promoter, HPLC after 4 days (FIG. 6)
Description: Leaves were infiltrated with Agrobacterium tumefaciens C58C1 transformed with the plasmid pGFP, which contains the cDNA encoding GFP under control of the 35S promoter, along with bacteria transformed with either the plasmid p19 which carries a cDNA encoding a gene-silencing protein or the control plasmid pBIN19.
Soluble phenolics were extracted by vortexing 30 mg of frozen, powdered leaf material in 300 μl of 70% methanol. After addition of 100 μl distilled water, the extract was vortexed again and then spun for 10 sec at 13,000 g to pellet the debris. The supernatant was analysed by gradient HPLC (apparatus from Spectra Physics, San Jose, Calif.) using a Columbus 5-μm C18 column (25 cm×4.6 mm; Phenomenex, Macclesfiled, Cheshire, UK). Solvent A was 1 mM trifluoroacetic acid, solvent B was acetonitrile, and the gradient was run for 65 min at flow rate of 1 ml min^−1 with the following concentrations: 0 min :100% A, 0% B; 50 min: 60% A, 40% B; 60 min: 30% A, 70% B; 65 min: 100% A, 0% B. The column eluant was monitored using a Spctra Fous scanning detector (Spectra Physics). A chlorogenic acid standard (Sigma) was used to quantify the amount of chlorogenic acid in the leaf extracts.
After the transfer of the overexpression constructs pTom and pTob, and the iRNA constructs pFRNtom and pFRN-tob to Agrobacterium tumefaciens C58C1 (DEBLAERE et al., 1985) single colonies were used for growing 50 mL overnight cultures. Additional 50 ml overnight cultures of Agrobacterium tumefaciens C58C1 containing expression constructs of the green fluorescent protein (PGFP) or the gene silencing inhibitor protein 19 (p19; kindly provided by O. Vionnet) or the empty binary vectors pBIN19 and pFRN were also grown. The cells were precipitated by centrifugation at 4000 g for 20 min and resuspended in 50 ml 10 mM MgCl2. After addition of 50 μl 100 mM acetosyringene the cells were incubated at room temperature overnight. To overexpress HQT similar amounts of the cultures containing pGFP, pTom, pTob were mixed with the same volume of cultures containing either pBIN19 or p19 and each mixture was used to infiltrate three leaves of a Nicotiana benthamiana plant. […] For gene silencing the cultures containing pFRN-tom, pFRN-tob and pFRN were used to infiltrate three leaves of Nicotiana benthamiana.

[2] = system: HQT enzyme activity (caffeoyl CoA and quinic acid as substrates); assay: HQT enzyme assay with crude extracts from E. coli expressing the recombinant protein; format: biochemical, Escherichia coli; settings: recombinant protein expressed in E. coli, decrease of caffeoyl-CoA measured spectrophotometrically (FIG. 5)
Description: As described above, HQT catalyses the production of chlorogenic acid via transfer of the caffeoyl moiety of caffeoyl-CoA to quinic acid. Such activity can be assessed, for example, using the assay described in Example 2. Briefly, the assay uses caffeoyl CoA and quinic acid as substrates, and the rate of conversion of caffeoyl CoA to chlorogenic acid is determined by spectrophotometry.
The reaction was initiated by adding the substrate quinic acid and the enzyme activity was measured spectrophotometrically as decrease of the amount of caffeoyl-CoA.
The enzyme activity was determined by spectrophotometry at 30° C. The reaction mixture contained in a total volume of 1 ml: 100 mM Na-Pi buffer pH 7.0, 1 mM EDTA, 16.8 μM caffeoyl CoA and 10-50 μl protein extract. […] The extinction coefficient for caffeoyl CoA is 1.8×10^4 M^−1 cm^−1 (ZENK et al., 1980). The synthesis of caffeoyl CoA was carried out as described previously (SEMLER et al., 1987).
The full-length cDNA of HQT from tomato was subcloned in frame into the NcoI and BamHI-sites of the expression vector pSTAG under the control of the T7 RNA-Polymerase promoter. This strategy led to the introduction of a sequence encoding an S-TAG at the 5′-end of the cDNA. According to procedures provided by the manufacturer (Novagen), the expression and purification of the fusion protein was carried out using the S-TAG™ Thrombin Purification Kit. The enzyme activity of the purified protein was then analysed in HQT enzyme assays.

Row | Molecule | HQT enzyme activity in leaves [1] | amount of chlorogenic acid in vivo in plants [1] | HQT enzyme activity [2] | HQT enzyme activity ([2]; listed as Hsr201)
1 | tobHQT: hydroxycinnamoyl-CoA quinate hydroxycinnamoyl transferase from tobacco, 436 amino acids, SEQ ID NO 2 (protein, listed as Nicotiana tabacum) MGSEKMMKINIKESTLVKPSKPTPTKRLWSSNLDLIVGRIHLLTVYFYKPNGSSNFFDSKIMKEALSNVLVSFYPMAGRLARDEQGRIEINCNGEGVLFVEAESDAFVDDFGDFTPSLELRKLIPTVDTSGDISTFPLIIFQVTRFKCGGVSLGGGVFHTLSDGLSSIHFINTWSDIARGLSVAIPPFIDRTLLRARDPPTSSFEHVEYHPPPSLISSSKSLESTSPKPSTTTMLKFSSDQLGLLKSKSKHDGSTYEILAAHIWRCTCKARALSDDQLTKLHVATDGRSRLCPPLPPGYLGNVVFTGTPMAKSSELLQEPLTNSAKRIHSALSKMDDNYLRSALDYLELLPDLSALIRGPTYFASPNLNINSWTRLPVHDSDFGWGRPIHMGPACILYEGTVYILPSPNSKDRNLRLAVCLDADHMPLFEKYLYEF | Increased HQT enzyme activity | 2 fold | – | –
2 | tomHQT: hydroxycinnamoyl-CoA quinate hydroxycinnamoyl transferase from tomato, 430 amino acids, SEQ ID NO 1 (protein, listed as Lycopersicon esculentum) MGSEKMMKINIKESTLVKPSKPTPTKRIWSSNLDLIVGRIHLLTVYFYKPNGSSNFFDNKVIKEALSNVLVSFYPMAGRLGRDEQGRIEVNCNGEGVLFVEAESDSCVDDFGDFTPSLELRKLIPSVETSGDISTFPLVIFQITRFKCGGVALGGGVFHTLSDGLSSIHFINTWSDIARGLSVAVPPFIDRTLLRARDPPTYSFEHVEYHPPPTLNSSKNRESSTTTMLKFSSEQLGLLKSKSKNEGSTYEILAAHIWRCTCKARGLPEDQLTKLHVATDGRSRLCPPLPPGYLGNVVFTATPIAKSCELQSEPLTNSVKRIHNELIKMDDNYLRSALDYLELQPDLSTLIRGPAYFASPNLNINSWTRLPVHECDFGWGRPIHMGPACILYEGTIYIIPSPNSKDRNLRLAVCLDAGHMSLFEKYLYEL | Increased HQT enzyme activity | 2 fold | showed HQT enzyme activity | –
3 | hsr201: tobacco hypersensitive response protein 201, a member of the transferase family (protein, UniProt Q8GT20 1-460, looked up) Benzyl alcohol …: MDSKQSSELVFTVRRQKPELIAPAKPTPREIKFLSDIDDQEGLRFQIPVIQFYHKDSSMGRKDPVKVIKKAIAETLVFYYPFAGRLREGNGRKLMVDCTGEGIMFVEADADVTLEQFGDELQPPFPCLEELLYDVPDSAGVLNCPLLLIQVTRLRCGGFIFALRLNHTMSDAPGLVQFMTAVGEMARGASAPSILPVWCRELLNARNPPQVTCTHHEYDEVRDTKGTIIPLDDMVHKSFFFGPSEVSALRRFVPHHLRKCSTFELLTAVLWRCRTMSLKPDPEEEVRALCIVNARSRFNPPLPTGYYGNAFAFPVAVTTAAKLSKNPLGYALELVKKTKSDVTEEYMKSVADLMVLKGRPHFTVVRTFLVSDVTRGGFGEVDFGWGKAVYGGPAKGGVGAIPGVASFYIPFKNKKGENGIVVPICLPGFAMETFVKELDGMLKVDAPLDNSNYAIIRPAL | – | – | no enzyme activity was detected | no HQT enzyme activity
